According to patent publication US20030078373A1 (published 2003):

Tests used:
[1] = target: cyclophilin A (UniProt P62937 1-165); test: cell-based or functional assay
[2] = target: T1, rhodanese (UniProt P00586 2-297); test: cell-based or functional assay
T1 sequence: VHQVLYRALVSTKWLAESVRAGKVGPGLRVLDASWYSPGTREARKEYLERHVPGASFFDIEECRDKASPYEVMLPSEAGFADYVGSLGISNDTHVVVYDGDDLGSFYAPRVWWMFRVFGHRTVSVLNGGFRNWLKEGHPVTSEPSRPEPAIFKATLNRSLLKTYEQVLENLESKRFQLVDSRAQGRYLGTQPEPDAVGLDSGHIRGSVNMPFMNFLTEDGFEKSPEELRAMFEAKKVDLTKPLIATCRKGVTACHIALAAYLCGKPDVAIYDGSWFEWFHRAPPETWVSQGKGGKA

[3] = target: T2, barnase (UniProt P00648 48-157); test: derived from the change from EX2 to EX1 amide proton exchange of barnase (NMR)
[4] = target: T1, rhodanese; test: estimated from the molar ratio giving maximal refolding yield of rhodanese
[5] = target: T2, barnase; test: derived from amide proton exchange of barnase (NMR); reference value for intact GroEL from the literature

T2 sequence (P00648 48-157): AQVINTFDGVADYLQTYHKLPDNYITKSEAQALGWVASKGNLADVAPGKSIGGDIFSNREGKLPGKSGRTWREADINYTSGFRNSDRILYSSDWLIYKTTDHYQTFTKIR

B1: sht-GroEL 191-345 (other)
chain: EGMQFDRGYLSPYFINKPETGAVELESPFILLADKKISNIREMLPVLEAVAKAGKPLLIIAEDVEGEALATLVVNTMRGIVKVAAVKAPGFGDRRKAMLQDIATLTGGTVISEEIGMELEKATLEDLGQAKRVVINKDTTTIIDGVGEEAAIQGR
**Q.** B1 was tested. Which “refolding of inactivated cyclophilin A” value [1] did it give?
**A.** 100%

**Q.** What about the rhodanese refolding activity [2] of the same binder?
**A.** ~42.5%

**Q.** And the “rhodanese refolding activity above background refolding” value [2]?
**A.** ~37.5%

**Q.** What about the “rhodanese refolding activity at about 25 mins” value [2] of the same binder?
**A.** ~50%

B2: sht-GroEL 191-376 (other)
chain: EGMQFDRGYLSPYFINKPETGAVELESPFILLADKKISNIREMLPVLEAVAKAGKPLLIIAEDVEGEALATLVVNTMRGIVKVAAVKAPGFGDRRKAMLQDIATLTGGTVISEEIGMELEKATLEDLGQAKRVVINKDTTTIIDGVGEEAAIQGRVAQIRQQIEEATSDYDREKLQERVAKLAGGV
**Q.** What does the source list for B2?
**A.** koff [3]: ~2 s⁻¹; Kd [4]: > 100 nM; refolding of inactivated cyclophilin A [1]: 100%; rhodanese refolding activity after 25 mins [2]: ~40%; fold of the dissociation rate constant over that from intact GroEL [5]: < 5 fold
